Test results taken from US20200206266A1 (JULIUS MAXIMILIANS UNIVERSIT T W RZBURG, published 2020).

T1: FLT3 with internal tandem duplication (FLT3-ITD) (human, UniProt P36888 27-543)
T1 sequence (looked up): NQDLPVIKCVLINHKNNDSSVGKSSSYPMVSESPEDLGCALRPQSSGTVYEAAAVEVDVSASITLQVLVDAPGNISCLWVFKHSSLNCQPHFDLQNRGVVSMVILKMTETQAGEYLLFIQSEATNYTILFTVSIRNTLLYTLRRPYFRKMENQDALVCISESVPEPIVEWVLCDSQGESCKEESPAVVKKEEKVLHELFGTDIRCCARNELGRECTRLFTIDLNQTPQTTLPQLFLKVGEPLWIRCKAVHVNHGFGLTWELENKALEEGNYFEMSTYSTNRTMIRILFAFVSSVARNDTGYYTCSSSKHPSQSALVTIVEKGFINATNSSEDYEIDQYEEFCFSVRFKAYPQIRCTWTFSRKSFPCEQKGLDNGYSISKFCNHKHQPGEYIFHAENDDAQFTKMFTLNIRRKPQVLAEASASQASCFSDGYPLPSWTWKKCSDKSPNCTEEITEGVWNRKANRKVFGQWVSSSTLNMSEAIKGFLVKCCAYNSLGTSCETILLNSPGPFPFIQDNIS

T2: FMS-like tyrosine kinase 3 (FLT3), wild-type (human, UniProt P36888 27-993)
T2 construct: whole, on cells; also called CD135; wt FLT3
T2 sequence (looked up): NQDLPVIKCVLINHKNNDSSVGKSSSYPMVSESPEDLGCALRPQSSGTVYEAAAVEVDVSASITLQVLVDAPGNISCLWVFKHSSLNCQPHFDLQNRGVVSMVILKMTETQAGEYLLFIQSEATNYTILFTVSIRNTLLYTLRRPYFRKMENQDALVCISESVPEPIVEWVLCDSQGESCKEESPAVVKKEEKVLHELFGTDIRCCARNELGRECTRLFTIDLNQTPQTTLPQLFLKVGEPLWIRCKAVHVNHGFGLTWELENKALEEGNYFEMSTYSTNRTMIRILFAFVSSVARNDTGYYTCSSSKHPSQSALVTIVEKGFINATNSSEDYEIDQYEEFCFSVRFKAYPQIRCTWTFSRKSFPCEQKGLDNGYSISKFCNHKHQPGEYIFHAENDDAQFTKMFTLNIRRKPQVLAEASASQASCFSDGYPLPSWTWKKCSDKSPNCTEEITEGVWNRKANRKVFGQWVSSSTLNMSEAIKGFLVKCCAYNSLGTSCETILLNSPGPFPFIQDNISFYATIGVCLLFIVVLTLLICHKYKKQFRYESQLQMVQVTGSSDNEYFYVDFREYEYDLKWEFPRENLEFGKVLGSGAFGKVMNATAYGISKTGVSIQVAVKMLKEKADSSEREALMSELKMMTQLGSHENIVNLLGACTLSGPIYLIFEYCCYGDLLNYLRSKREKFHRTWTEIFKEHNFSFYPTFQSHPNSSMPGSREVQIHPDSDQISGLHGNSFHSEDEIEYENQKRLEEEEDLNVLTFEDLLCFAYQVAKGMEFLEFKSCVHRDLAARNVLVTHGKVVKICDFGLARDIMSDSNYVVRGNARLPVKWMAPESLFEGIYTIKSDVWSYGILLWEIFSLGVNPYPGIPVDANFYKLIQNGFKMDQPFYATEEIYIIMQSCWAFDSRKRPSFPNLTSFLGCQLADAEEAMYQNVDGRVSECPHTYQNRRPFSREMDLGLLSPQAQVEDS

B1: BV10 FLT3 CAR (other)
chain: QVQLKQSGPGLVQPSQSLSITCTVSGFSLTNYGLHWVRQSPGKGLEWLGVIWSGGSTDYNAAFISRLSISKDNSKSQVFFKMNSLQADDTAIYYCARKGGIYYANHYYAMDYWGQGTSVTVSSGGGGSGGGGSGGGGSDIVMTQSPSSLSVSAGEKVTMSCKSSQSLLNSGNQKNYMAWYQQKPGQPPKLLIYGASTRESGVPDRFTGSGSGTDFTLTISSVQAEDLAVYYCQNDHSYPLTFGAGTKLELKRESKYGPPCPPCPMFWVLVVVGGVLACYSLLVTVAFIIFWVRSKRSRGGHSDYMNMTPRRPGPTRKHYQPYAPPRDFAAYRSRVKFSRSADAPAYQQGQNQLYNELNLGRREEYDVLDKRRGRDPEMGGKPRRKNPQEGLYNELQKDKMAEAYSEIGMKGERRRGKGHDGLYQGLSTATKDTYDALHMQALPPR
B2: 4G8 FLT3 CAR (other)
chain: QVQLQQPGAELVKPGASLKLSCKSSGYTFTSYWMHWVRQRPGHGLEWIGEIDPSDSYKDYNQKFKDKATLTVDRSSNTAYMHLSSLTSDDSAVYYCARAITTTPFDFWGQGTTLTVSSGGGGSGGGGSGGGGSDIVLTQSPATLSVTPGDSVSLSCRASQSISNNLHWYQQKSHESPRLLIKYASQSISGIPSRFSGSGSGTDFTLSINSVETEDFGVYFCQQSNTWPYTFGGGTKLEIKRESKYGPPCPPCPMFWVLVVVGGVLACYSLLVTVAFIIFWVRSKRSRGGHSDYMNMTPRRPGPTRKHYQPYAPPRDFAAYRSRVKFSRSADAPAYQQGQNQLYNELNLGRREEYDVLDKRRGRDPEMGGKPRRKNPQEGLYNELQKDKMAEAYSEIGMKGERRRGKGHDGLYQGLSTATKDTYDALHMQALPPR
B3: anti-FLT3 BV10 mAb (Biolegend) (antibody, V domains shown)
VH: QVQLKQSGPGLVQPSQSLSITCTVSGFSLTNYGLHWVRQSPGKGLEWLGVIWSGGSTDYNAAFISRLSISKDNSKSQVFFKMNSLQADDTAIYYCARKGGIYYANHYYAMDYWGQGTSVTVSS
VL: DIVMTQSPSSLSVSAGEKVTMSCKSSQSLLNSGNQKNYMAWYQQKPGQPPKLLIYGASTRESGVPDRFTGSGSGTDFTLTISSVQAEDLAVYYCQNDHSYPLTFGAGTKLELKR
B4: mouse-anti-human-FLT3 mAb (clone 4G8, BD Pharmagin, BD Biosciences) (antibody, V domains shown)
VH: QVQLQQPGAELVKPGASLKLSCKSSGYTFTSYWMHWVRQRPGHGLEWIGEIDPSDSYKDYNQKFKDKATLTVDRSSNTAYMHLSSLTSDDSAVYYCARAITTTPFDFWGQGTTLTVSS
VL: DIVLTQSPATLSVTPGDSVSLSCRASQSISNNLHWYQQKSHESPRLLIKYASQSISGIPSRFSGSGSGTDFTLSINSVETEDFGVYFCQQSNTWPYTFGGGTKLEIKR
notes: Bought, fluorochrome-conjugated mouse antibody, used with a mouse IgG1 isotype control; also called anti-FLT3 mAb (4G8); anti-FLT3 4G8 mAb

Columns and labels:
[1] = target: T1, FLT3 with internal tandem duplication …; experiment: cell-based or functional assay
[2] = target: T2, FMS-like tyrosine kinase 3 (FLT3), …; experiment: flow cytometry, staining of THP-1 cells (FLT3 wild-type)
Description: (a) Flow cytometric analysis of FLT3 expression on AML cell lines (MOLM-13, THP-1, MV4;11) and primary AML blasts (pt #1 and #2).

Row | Binder | IFN-γ production, MOLM-13^creno against MOLM-13^native [1] | IFN-γ production, MOLM-13^mido against MOLM-13^native [1] | IFN-γ production, MOLM-13^quiza against MOLM-13^native [1] | IL-2 production, MOLM-13^creno against MOLM-13^native [1] | IL-2 production, MOLM-13^mido against MOLM-13^native [1] | IL-2 production, MOLM-13^quiza against MOLM-13^native [1] | increase in cytolytic activity, MOLM-13^creno against MOLM-13^native, 2.5:1 E:T [1] | increase in cytolytic activity, MOLM-13^creno against MOLM-13^native, 5:1 E:T [1] | increase in cytolytic activity, MOLM-13^mido against MOLM-13^native, 2.5:1 E:T [1] | increase in cytolytic activity, MOLM-13^mido against MOLM-13^native, 5:1 E:T [1] | increase in cytolytic activity, MOLM-13^quiza against MOLM-13^native, 2.5:1 E:T [1] | increase in cytolytic activity, MOLM-13^quiza against MOLM-13^native, 5:1 E:T [1] | proliferation index, MOLM-13^mido against MOLM-13^native [1] | other results
1 | B1 | 1.6 fold | 2.1 fold | 1.2 fold | 2 fold | 6.6 fold | 1.9 fold | 1.8 fold | 1.6 fold | 1.6 fold | 1.3 fold | 3.8 fold | 1.6 fold | 1.8 fold | IFN-γ production, CAR-T vs MOLM-13^native [1]: 1480 pg/mL; proliferation index, MOLM-13^creno against MOLM-13^native [1]: 1.3 fold; proliferation index, MOLM-13^quiza against MOLM-13^native [1]: 1.2 fold
2 | B2 | 1.4 fold | 2.3 fold | 1.4 fold | 3.9 fold | 12.4 fold | 1.9 fold | 2.5 fold | 2 fold | 1.5 fold | 1.4 fold | 17.7 fold | 1.6 fold | 1.8 fold | % proliferation, CAR-T vs MOLM-13^native [1]: 31.3%
3 | B3 | – | – | – | – | – | – | – | – | – | – | – | – | – | ADCC, percentage of MV4;11 cells eliminated, crenolanib pre-treatment against none [1]: 3 fold; ADCC, percentage of MV4;11 cells eliminated, midostaurin pre-treatment against none [1]: 2 fold; ADCC, percentage of MV4;11 cells eliminated, quizartinib pre-treatment against none [1]: 3.5 fold
4 | B4 | – | – | – | – | – | – | – | – | – | – | – | – | – | binding result [2]: binds
